Data from patent US20210196823A1, “Methods of Treating Metabolic Disease” (Pfizer Inc., priority 2018, published 2021).

Key:
Huh7 cells = assay: Gene expression microarray of Huh7 cells treated with ERFE; assay type: cell-based; details: Huh7, ERFE 10 μg/ml, 24 h
Description: (b) Gene expression microarray: Microarray analysis of Huh7 cells treated with mouse or human erythroferrone was carried out to test the activity of erythroferrone on the BMP/SMAD signalling pathway. Generally cell treatments were carried out according to the following protocol: Huh7 and HepG2 were cultured in Dulbecco's Modified Eagle's Medium—High Glucose (Sigma), supplemented with 10% Fetal Bovine Serum (Sigma), 1% Penicillin-Streptomycin (Sigma) and 1% L-Glutamine (Sigma), unless otherwise indicated. Cells were plated 24 h before treatments in 24-well (gene expression analysis) or 12-well (protein analysis) cell culture plates. At the time of treatment, cells were washed with PBS and fresh media was added.
For the purposes of gene expression microarray analysis RNA was isolated from the Huh7 cells using RNeasy Plus kit (Qiagen), this was followed by RNA quantification and quality assessment using a 2100 Bioanalyzer (Agilent). RNA was converted into biotin labelled cRNA for hybridization and gene expression analysed using the Human HT12v4.0 Expression Beadchip (Illumina) and the Illuminas's iScan Scanner. Raw data was normalised using the lumi package (Bioconductor) and compared using LIMMA (Bioconductor). Statistical significance was set at p<0.05.

C2C12 Bre-Luc cells = assay: BMP/SMAD signalling output in C2C12 Bre-Luc cells; assay type: cell-based; details: 24 h
Description: As HAMP can be stimulated by a variety of ligands, we further tested the effect of ERFE in cells treated with various BMPs by measuring BMP/SMAD signalling output in C2C12 Bre-Luc cells. C2C12 Bre-Luc cells were treated with 2 nM of BMP in combination with a gradient of mouse ERFE concentrations (7.5 pM to 0.5 μM) for 24 h, and luminescence measured in each well. […] Analogous data confirmed suppression of HAMP and ID1 in cells treated with ERFE and BMP 2/6, BMP5, BMP6 and BMP7, FIG. 3F.
The inhibitory effect of EFE on selected BMPs was tested in-vitro in three different cell types, C2C12, Huh7 and HepG2. Huh7 (FIG. 3G, 3H) and HepG2 (FIGS. 3J, 3K) cells were treated with 2 nM of BMPs, alone or in combination with 10 μg/ml of mouse ERFE, in serum-free media, and analysed 6 h after treatment. Gene expression of HAMP and ID1 was measured by qRT-PCR. Results expressed as fold change relative to non-treated cells from 3 independent experiments. Statistical significance was analysed for each pair of BMP treatments. (*p<0.05, **p<0.01, ***p<0.001, ****p<0.0001, Student's t test). Additionally we tested the effect of ERFE in cells treated with various BMPs by measuring BMP/SMAD signalling output in C2C12 Bre-Luc cells (FIG. 3E). C2C12 Bre-Luc cells were treated with 2 nM of BMP in combination with a gradient of mouse ERFE concentrations (7.5 pM to 0.5 μM) for 24 h, and luminescence measured in each well.

[1] = test system: BMP-target genes in the liver; assay: Short-term ERFE treatment in WT mice: liver BMP-target genes, serum and liver iron; assay type: in vivo; details: 200 μg i.v., 3 h
Description: (a) Animal studies: Wild-type male C57BL/6 mice were purchased from Harlan Laboratories, UK. Embryos from Fam132b+/− mice on a mixed Sv129/C57BL/6 background were obtained from the Mutant Mouse Regional Resource Center (MMRRC) at UC Davis (strain 66; 12955-Fam132btm1Lex/Mmucd, ID MMRRC:032289-UCD) and backcrossed onto C57BL/6 background using marker-assisted accelerated backcrossing. Heterozygote pairs were mated to generate homozygous animals from which knockout and wild-type colonies were maintained. Animals were housed in individually ventilated cages in the Department of Biomedical Services, University of Oxford, and provided access to normal chow (163 ppm of iron, Special Diets Services 801700) and water ad libitum. All experiments were performed in 9-13 weeks old male mice. For EPO treatments, mice were injected intraperitoneally with 200 IU recombinant human EPO (Bio-Rad) in water or vehicle (water) daily for three consecutive days and culled 24 h after the last EPO injection. For ERFE treatments, mice were injected intravenously with 200 μg of recombinant mouse ERFE or vehicle (saline) and culled 3 h after treatment. Mice were euthanized in increasing CO2 concentrations.
(b) Serum iron analysis: Blood was taken by cardiac puncture immediately after euthanising mice and collected in BD EDTA or SST (serum) Microtainer tubes. Serum was prepared by centrifugation of clotted blood at 8000×g for 3 minutes in BD Microtainer SST tubes (Beckton Dickinson) and used for serum iron quantification using a Abbott Architect c16000 automated analyzer (Abbott Laboratories).
(c) Tissue non-heme iron measurement: Liver tissues were dried for 4 hours at 100° C., weighed and digested in 10% tricholoroacetic acid (Sigma)/30% hydrochloric acid (Sigma) for 20 hours at 65° C. A standard curve was generated using a dilution series of ferric ammonium citrate (Sigma) in the 10% (w/v) trichloroacetic acid/30% hydrochloric acid mixture. Non-heme iron content was determined colorimetrically by measuring absorbance at 535 nm following reaction with chromogen reagent containing 0.1% (w/v) bathophenoldisulphonic acid (Sigma)/0.8% thioglycolic acid (Sigma).
Three hours after the injections, mice were culled and serum and liver iron measured. […] Additionally, three hours after the injections, mice were culled and the liver harvested for analysis of liver gene expression for BMP-target genes.

B1: mouse ERFE: recombinant mouse erythroferrone (SEQ ID NO: 2); monoFC-muErfe is a monomeric FC murine ERFE fusion (protein, listed as Mus musculus)
chain: MASRRPVGARTLLACASLLAAMGLGVPESAEPVGTHARPQPPGAELPAPPANSPPEPIAHAHSVDPRDAWMLFVKQSDKGINSKRRSKARRLKLGLPGPPGPPGPQGPPGPFIPSEVLLKEFQLLLKGAVRQRESHLEHCTRDLPASGSPSRVPAAQELDSQDPGALLALLAATLAQGPRAPRVEAAFHCRLRRDVQVDRRALHELGIYYLPEVEGAFHRGPGLNLTSGQYTAPVAGFYALAATLHVALTEQPRKGPTRPRDRLRLLICIQSLCQHNASLETVMGLENSSELFISVNGVLYLQAGHYSVFLDNASGSSLTVRSGSHFSAILLGL
For B1, the “target genes of the JAK/STAT3 pathway” value (Huh7 cells) was “No changes”, the “number of suppressed genes” value (Huh7 cells; 5 are BMP/SMAD targets ID1, ID2, ID3, SMAD6, HAMP) was 12 and the “BMP2 activity (luminescence)” value (C2C12 Bre-Luc cells; 2 nM BMP2, mouse ERFE 7.5 pM to 0.5 μM) was “no effect”. The “BMP4 activity (luminescence)” value (C2C12 Bre-Luc cells; 2 nM BMP4, mouse ERFE 7.5 pM to 0.5 μM) was “no effect”, the “activation of BMP signalling by BMP5 (luminescence)” value (C2C12 Bre-Luc cells; 2 nM BMP5, mouse ERFE 7.5 pM to 0.5 μM) was “dose-dependent decrease” and the “activation of BMP signalling by BMP6 (luminescence)” value (C2C12 Bre-Luc cells; 2 nM BMP6, mouse ERFE 7.5 pM to 0.5 μM) was “dose-dependent decrease”. For the same molecule, the “activation of BMP signalling by BMP7 (luminescence)” value (C2C12 Bre-Luc cells; 2 nM BMP7, mouse ERFE 7.5 pM to 0.5 μM) was “dose-dependent decrease”, the “BMP9 activity (luminescence)” value (C2C12 Bre-Luc cells; 2 nM BMP9, mouse ERFE 7.5 pM to 0.5 μM) was “no effect” and the liver iron [1] was “not affected”. The serum iron [1] was “not affected”, the serum hepcidin levels ([1]; in comparison to the control) was “reduced” and the “liver expression of Hamp and BMP-target genes” value ([1]; vs inactive control Clip huERFE) was “significantly reduced”.
